# B1: TPR t1 (parent)
# chain: GACCAAUCUGCCCUCAGAGCUCGAGAACAUCUUCGGAUGCAGAGGAGGCAGGCUUCGGUGGCGCGAUAGCGCCAACGUCCUCAACCUCCAAUGCAUCCCACCACAUGAUGAUGCCUGAAGAGCCUUGGUUUUUUG
# Variants of: B1
# Assay: polymerase ribozyme fitness, log enrichment relative to wild type (log ratio); higher = more active; in vitro selection for triplet polymerase activity
# In short: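 Fitness measures genotype enrichment against wild-type enrichment on a logarithmic scale, with inverse-variance-weighted averaging of replicates. The logarithm is base 2, and genotypes were kept only with ≥10 input reads and ≥1 read per output in Illumina sequencing. The sequenced libraries came from one triplicate in vitro selection round, including frozen incubation at −7 °C, of PCR-built, transcribed mutant libraries of each subunit of a heterodimeric triplet polymerase ribozyme.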
row,Variant,polymerase ribozyme fitness (log ratio)
1,G39C G42U G47C,-3.36
2,G39A A95G C115A,-0.556
3,G39U C62U C115G,-1.99
4,C40A G58C C72G U78G C79A,-5.64
5,A37U G69C U112A G128U,-4.19
6,C40G A50U G63C,-2.25
7,A37U A50G,-0.867
8,C40A C89G U106G C123U,-5.55
9,G39U C98U,-1.66
10,C40A C72A A100C U132C,-2.7
11,C40G C56G C124G G127U,-0.222
12,U38A A75U C82U A83C C88G U112C G122A,-2.99
13,A37U G47A A68G C80A,-6.59
14,A37G G52A,-1.1
15,G39U C80U C101A A111U,-5.03
16,C40A C70A,-2.89
17,C40A U106A G113A,-3.55
18,G39A G93A,-2.02
19,G39A G63A,-1
20,C40A C72G A108G,-4.46
21,C40G G113U C114U U133G,-2.25
22,C40A C53U G63A,-2.24
23,A37U G60A C101U,-0.477
24,A37G C94G,-2.1

row,Variant,polymerase ribozyme fitness (log ratio)
1,G39A G61C C72U G117A,-1.82
2,A37U C40A G69C U130A,-3.51
3,C40A A41U A43U G44C,-3.15
4,C40G C102U U116G C124U,-4.94
5,U38G C88U,-0.426
6,U38G G47C C114A,-5.64
7,U38C G44U A91U G120U,-2.19
8,A37G C89A C102A C124U,-3.6
9,G39U G52U C70U,-2.08
10,C40G G77U C101G U112A,-1.23
11,U38C G48U A68G G122A C123U,-3.71
12,C40A G44A G45U A50C G93A,-5.29
13,C40A U106A C124A,1.38
14,C40A A50U A95C,-3.28
15,A37U G44A,-2.19
16,G39C U54A G58U C114A,-2.27
17,A37G G44C C72G U78C,-1.05
18,G39A G71U A84U,-0.797
19,C40A U55A G69C C73A A84C G120A,-1.3
20,A37U G61U A83G C88A,-2.28
21,G39A G44A U78C,-1.89
22,C40A U133G,-1.45
23,A37U U106C,-0.686
24,C40A G45U A90G,-1.17

row,Variant,polymerase ribozyme fitness (log ratio)
1,G39U C86U,-1.64
2,G39A C64U C124A,1.06
3,C40A C56G G61A,-4.03
4,G39U G77C,-1.76
5,G39A G113C C124G,-1.58
6,C40A A46U C114A,-4.55
7,U38A G63U U131A,-2.72
8,G39U C73U,-1.52
9,G39U C56G C72G U112C C124U,-1.3
10,C40A C80U C89U G117A A121G,-0.909
11,C40A G57C U81G C82G C97A A111U,-6.79
12,C40A G63A G128U,-4.66
13,U38G U54G,-0.407
14,U38G U54A,-0.658
15,C40A U59A G60A,-0.777
16,A37U G69A G77A A90U C123U,-5.05
17,G39U A111C C124A,0.34
18,C40A C72G A119U U130C U131A,-1.75
19,G39U A46G G63A C115G,-1.83
20,G39C G120U,-1.35
21,G39A G113C,-2.69
22,G39U A95U,-1.27
23,G39U C70A,-2.96
24,C40G C49U A84U,-2.42

row,Variant,polymerase ribozyme fitness (log ratio)
1,C40A G63A,-2.68
2,C40A G63U,-3.37
3,A37U G39A,-1.34
4,C40A C89U,-0.912
5,A37U G52U G69C,-2.07
6,A37U A43C G71U C79U U112A U116G U134C,-6.04
7,A37U G58C A75U C80U G93A C97A,-6.83
8,C40A C49U,-2.52
9,U38G C79G,-2.67
10,G39A G51A C64U U78C,-3.91
11,G39A G42A,-2.67
12,C40G G63U G120A,-0.497
13,C40A C56U,-0.58
14,C40G C53G G61C C104A G113A,-4.09
15,G39A G57U C80A A121C,0.47
16,G39A C49U U78C,-1.72
17,C40G A46C G48U C73G C124G,-5.04
18,C40A G42U G77C,-2.77
19,G39U G52C C53A A83U,-3.01
20,C40G C53U G127C,-1.33
21,A37G G60A C102U,-3.61
22,G39A U112A,0.854
23,A37U C99U,-2.37
24,U38C G71A,-1.37

row,Variant,polymerase ribozyme fitness (log ratio)
1,A37U A50U C94U,-1.81
2,G39A G42U C72A,-1.57
3,G39A C40G,-1.68
4,G39U C53G U116C,-2.62
5,C40A G45U G110A,-4.4
6,C40G G48U C82A,-2.43
7,C40G C49A C64U A119U U126A,-3.13
8,C40G C56A,-1.63
9,G39U C62U C99U,-5.08
10,G39A G69C C124U,-0.485
11,U38G U87A A95C,-1.01
12,G39A C64U,0.0887
13,C40G G57U,-1.36
14,G39U G60A U78C G127U,-2.06
15,G39U G127C,-1.28
16,G39U A41U A95C G117U,-4.57
17,U38G U92A U109G C114A G122U,-6.12
18,U38A C89G C114A C123A U131G,-4.1
19,G39C A41U G60A,-2.76
20,A37U C104U U116C,-0.911
21,U38G G61U,-0.532
22,C40A C102U,-3.15
23,A37U G52A G61A A105G G127C,-4.21
24,A37G G117C,-2.52

row,Variant,polymerase ribozyme fitness (log ratio)
1,G39U C114U G120A G127C,-2.98
2,G39A G69U U96A C104A G113A U126C,-3.63
3,A37G G69U,-1.08
4,G39U G117U,-3.23
5,G39U C40A A43G C56G C104U U130C,-4.61
6,A37G C88A G113U,-5.31
7,A37U C76U,-0.3
8,G39A A50G C79A,-2.95
9,A37U G120A,1.2
10,G39A C79A C114G A121C,-4.29
11,G39U C85A A90G A119U C123G U125G,-1.21
12,A37U,-0.355
13,C40A G71U U131A,-2.31
14,C40A A90C G93U,-1.13
15,C40A G45U G122U,-2.79
16,G39A A84U,-1.22
17,U38G G39U U54G G69U U87A G113C,-4.25
18,C40G C49U,-2.95
19,G39U A105C,-3.64
20,G39C G52A,-1.32
21,G39U C64U,-0.207
22,U38G C49U C80G,-4.88
23,A37U A75U G120C,1.14
24,C40G G110A U132A,-1.48

row,Variant,polymerase ribozyme fitness (log ratio)
1,A37U C49U C64U C114U,-3.02
2,G39C A66C,-1.94
3,G39U U92C,-1.97
4,A37U C73G,-1.27
5,C40A G47A G60A A75U C86U C97U C123A U132A,-1.57
6,C40A A43C G120C U130A,-2.63
7,G39C G61C A83G,-3.89
8,A37U G69A,-3.01
9,C40A C76U,-1.15
10,G39A C70G,-3.16
11,G39C A50U G61A,-1.4
12,G39A C49U G57A A84U C97U G120C C124U G128U U132A,-2.74
13,C40A G71U G117C G120C,-5.63
14,C40A A90G C123U,0.623
15,A37U U55G,-0.465
16,U38G A91C,-2.88
17,U38A A111U,-4.52
18,G39A G60C G113C C115A,-4.37
19,G39A G52A C72U C85U A95C G113U,-5.94
20,U38A C73G C101A A119U A121U G122U,-2.99
21,U38C U54A G77A U96A G120A,-4.19
22,G39A G51U A83G A95C C124A,-2.8
23,U38A U96G U112A G128A,-2.89
